Results as given in article PMC9910460 (Proceedings of the National Academy of Sciences of the …, 2022).

Target: TF-Mec1 1–500aa (Saccharomyces cerevisiae, UniProt P38111 1-500)
Assay: pull-down

TF-Mec1 1–500aa, sequence (P38111 1-500): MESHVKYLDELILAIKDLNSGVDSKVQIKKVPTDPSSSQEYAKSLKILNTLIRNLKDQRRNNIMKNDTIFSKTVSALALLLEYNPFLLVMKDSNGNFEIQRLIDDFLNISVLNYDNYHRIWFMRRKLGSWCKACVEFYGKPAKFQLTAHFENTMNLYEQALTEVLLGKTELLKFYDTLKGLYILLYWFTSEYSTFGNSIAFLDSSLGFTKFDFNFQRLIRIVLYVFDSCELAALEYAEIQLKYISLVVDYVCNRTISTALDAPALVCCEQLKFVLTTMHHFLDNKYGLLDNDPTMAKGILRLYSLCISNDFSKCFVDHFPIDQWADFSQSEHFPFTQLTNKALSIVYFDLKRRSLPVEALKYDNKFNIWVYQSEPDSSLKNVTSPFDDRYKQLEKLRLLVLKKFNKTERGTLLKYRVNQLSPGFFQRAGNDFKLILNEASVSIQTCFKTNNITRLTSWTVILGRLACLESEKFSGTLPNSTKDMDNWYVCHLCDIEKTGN

binding result: binds
B1: GST–Atg13 460–640aa (domain or fragment, Saccharomyces cerevisiae, UniProt Q06628 460-640, looked up)
chain: ESQEDLMDFVKLLEEKPDLTIKKTSGNNPPNINISDSLIRYQNLKPSNDLLSEDLSVSLSMDPNHTYHRGRSDSHSPLPSISPSMHYGSLNSRMSQGANASHLIARGGGNSSTSALNSRRNSLDKSSNKQGMSGLPPIFGGESTSYHHDNKIQKYNQLGVEEDDDDENDRLLNQMGNSATK
